# Data reported in patent US20250353912A1, “COMPOSITIONS AND METHODS COMPRISING ANTIBODIES THAT BIND TO COVALENT PEPTIDE CONJUGATES” (New York University, priority 2022, published 2025).
# Target: osimertinib-EGFR/HLA-A*02 (Homo sapiens, UniProt P00533)
# Assay: Yeast-display binding of affinity matured clones
# Conditions: for binding to EGFR/HLA-A*02 (no drug-conjugation) / binding to osimertinib-EGFR/HLA-A*02: binding titration, FIG. 39; for inhibition of antigen binding by free drug: osimertinib-EGFR/HLA-A*02 10 nM, free osimertinib 1 μM, FIG. 40
# Experimental: FIG. 40. Binding of EO_Q16 and EO_Q17 to osimertinib-EGFR/HLA-A*02 (10 nM) in the absence and presence of free osimertinib (1 μM), showing that antigen binding of these antibodies is not inhibited by the presence of free drug.
# The binding partners described above in this Example show higher binding signals to osimertinib-EGFR/HLA-A*02, as tested in the yeast display format and as shown in FIGS. 39 and 40.
Molecule,binding to EGFR/HLA-A*02 (no drug-conjugation),binding to osimertinib-EGFR/HLA-A*02,inhibition of antigen binding by free drug
"EO_Q16: affinity matured clone of OEA2-5, osimertinib-EGFR on HLA-A*02 (antibody, V domains shown) VH: EVQLVESGGGLVQPGGSLRLSCAASGFTISSSYIHWVRQAPGKGLEWVAYISPSYGSTSYADSVKGRFTISADTSKNTAYLQMNSLRAEDTAVYYCAREYVTMSIDYWGQGTLVTVSS VL: DIQMTQSPSSLSASVGDRVTITCRASQSVSSAVAWYQQKPGKAPKLLIYSASSLYSGVPSRFSGSRSGTDFTLTISSLQPEDFATYYCQQYSDWPITFGQGTKVEIKRTV",not to the equivalent antigen without drug conjugation,high affinity,not inhibited
"EO_Q17: affinity matured clone of OEA2-5, osimertinib-EGFR on HLA-A*02 (antibody, V domains shown) VH: EVQLVESGGGLVQPGGSLRLSCAASGFTISSSYIHWVRQAPGKGLEWVAYISPSYGSTSYADSVKGRFTISADTSKNTAYLQMNSLRAEDTAVYYCARELVEMTPDYWGQGTLVTVSS VL: DIQMTQSPSSLSASVGDRVTITCRASQSVSSAVAWYQQKPGKAPKLLIYSASSLYSGVPSRFSGSRSGTDFTLTISSLQPEDFATYYCQQYSSWPITFGQGTKVEIKRTV",not to the equivalent antigen without drug conjugation,high affinity,not inhibited
